Test results published in US20230406922A1 (SIMCERE ZAIMING PHARMACEUTICAL, published 2023).

T1: murine CD19 protein (murine, UniProt P25918 19-287, limits assumed)
T1 construct: also called mouse CD19-his protein
T1 sequence (looked up): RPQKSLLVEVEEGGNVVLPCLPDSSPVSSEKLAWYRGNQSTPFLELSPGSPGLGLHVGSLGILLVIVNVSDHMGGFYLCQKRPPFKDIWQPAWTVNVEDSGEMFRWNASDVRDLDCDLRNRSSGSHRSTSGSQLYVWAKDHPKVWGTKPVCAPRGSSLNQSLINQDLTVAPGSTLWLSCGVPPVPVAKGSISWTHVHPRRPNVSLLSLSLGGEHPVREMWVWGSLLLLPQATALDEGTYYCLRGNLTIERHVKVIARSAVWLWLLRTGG

T2: human CD19 exon1-3-His protein (human, UniProt P15391 20-186)
T2 construct: Made in HEK293E cells, purified on nickel column; not shown: His tag
T2 sequence: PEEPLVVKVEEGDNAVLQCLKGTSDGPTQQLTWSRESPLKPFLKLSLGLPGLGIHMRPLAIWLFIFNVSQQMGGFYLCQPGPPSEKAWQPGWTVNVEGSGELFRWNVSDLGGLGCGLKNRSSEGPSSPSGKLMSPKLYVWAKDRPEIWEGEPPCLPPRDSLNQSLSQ

T3: cynomolgus monkey CD19 on peripheral blood B cells (cynomolgus monkey (Macaca fascicularis), UniProt A0A2K5W8L9 20-557)
T3 construct: whole, on cells; also called cynomolgus monkey B cells
T3 sequence: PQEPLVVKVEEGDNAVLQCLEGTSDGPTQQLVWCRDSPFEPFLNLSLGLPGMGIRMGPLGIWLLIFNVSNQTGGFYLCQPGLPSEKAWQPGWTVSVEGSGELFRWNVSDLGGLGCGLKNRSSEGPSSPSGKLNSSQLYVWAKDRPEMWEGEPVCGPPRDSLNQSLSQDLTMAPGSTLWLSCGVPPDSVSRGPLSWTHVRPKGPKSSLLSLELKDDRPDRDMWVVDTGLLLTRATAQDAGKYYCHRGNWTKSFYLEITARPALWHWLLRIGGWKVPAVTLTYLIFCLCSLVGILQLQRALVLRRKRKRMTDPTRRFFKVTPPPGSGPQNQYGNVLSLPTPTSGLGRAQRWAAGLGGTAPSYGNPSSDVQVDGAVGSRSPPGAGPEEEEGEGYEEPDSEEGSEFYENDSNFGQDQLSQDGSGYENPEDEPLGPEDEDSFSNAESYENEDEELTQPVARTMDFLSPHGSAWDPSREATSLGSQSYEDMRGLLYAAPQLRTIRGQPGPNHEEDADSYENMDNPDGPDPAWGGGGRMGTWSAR

T4: monkey CD19, full length, on HEK293T cells (monkey, UniProt P15391 20-556 (human entry))
T4 construct: The entry holds the signal peptide; also called HEK293T-monkey CD19
T4 chain: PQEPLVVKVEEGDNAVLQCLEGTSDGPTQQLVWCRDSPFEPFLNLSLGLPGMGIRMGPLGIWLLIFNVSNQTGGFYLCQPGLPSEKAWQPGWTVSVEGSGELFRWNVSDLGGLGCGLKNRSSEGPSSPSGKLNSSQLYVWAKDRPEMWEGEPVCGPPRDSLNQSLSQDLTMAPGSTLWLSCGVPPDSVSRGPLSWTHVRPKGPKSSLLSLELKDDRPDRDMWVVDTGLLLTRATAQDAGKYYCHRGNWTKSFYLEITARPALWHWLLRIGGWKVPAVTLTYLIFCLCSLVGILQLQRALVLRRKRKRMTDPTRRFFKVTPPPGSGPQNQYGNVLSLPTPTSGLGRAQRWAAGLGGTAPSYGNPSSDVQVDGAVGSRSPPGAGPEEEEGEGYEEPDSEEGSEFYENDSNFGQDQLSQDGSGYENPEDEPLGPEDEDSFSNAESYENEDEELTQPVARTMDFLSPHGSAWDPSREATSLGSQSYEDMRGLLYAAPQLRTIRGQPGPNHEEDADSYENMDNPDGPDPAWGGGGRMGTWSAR


Legend:
[1] = target: T1, murine CD19 protein; assay: ELISA, murine CD19 coated
[2] = target: T2, human CD19 exon1-3-His protein; assay: ELISA on coated human CD19 exon1-3-His
[3] = target: T3, cynomolgus monkey CD19 on peripheral …; assay: FACS on cynomolgus monkey PBMC, gated on CD20-positive B cells
Description: Monkey peripheral blood mononuclear cells were extracted from fresh cynomolgus monkey peripheral blood (purchased from Shanghai Medicilon Inc.) according to Ficoll-Paque Plus (purchased from GE Healthcare, Cat. No. 171440-02). […] The cells were incubated at room temperature for 1 h. […] The cells were incubated at room temperature for 30 min in the dark, washed 5 times, gently resuspended in PBS, and assayed and analyzed by FACS (FACS Canto™, purchased from BD Biosciences), in which CD20 was used as a marker for B cells.

[4] = target: T1, murine CD19 protein; assay: ELISA, murine CD19 coated; remark: listed apart in the source
[5] = target: T4, monkey CD19, full length, on HEK293T …; assay: FACS on HEK293T-monkey CD19 cells
Description: (§1) For suspension cells Raji, the medium supernatant was discarded by direct centrifugation, and the cell pellet was washed twice with PBS. After cell counting of the cells obtained in the last step, the cell pellet was resuspended to 2×10⁶ cells/mL with a blocking solution [PBS+2% (w/w) BSA] and added into a 96-well FACS reaction plate at 50 μL/well. […] After the plate was centrifuged and washed 5 times with a PBS buffer, the results were assayed and analyzed by FACS (FACS Canto™, purchased from BD Biosciences). Data analysis was performed by software (CellQuest) to obtain the mean fluorescence intensity (MFI) of the cells. Then, analysis was performed by software (GraphPad Prism8), data were fitted, and EC₅₀ values were calculated.
(§2) HEK293T-monkey CD19 cells were subjected to the FACS assay and data analysis according to the method described in Example 4.2.

[6] = target: monkey CD19-his protein (monkey); assay: ELISA, monkey CD19 coated
Description: After incubation for 2 h at 37° C., the plate was washed 3 times with PBS. […] After incubation for 1 h at 37° C., the plate was washed 5 times with PBS. A TMB substrate was added at 50 μL/well. After incubation at room temperature for 10 min, a stop solution (1.0 N HCl) was added at 50 μL/well. The OD450 nm values were read on an ELISA microplate reader (Multimode Plate Reader, EnSight, purchased from Perkin Elmer). […] The negative control antibody mIgG1 was an antibody against hen egg lysozyme, anti-hel-mIgG1 (purchased from Biointron, Cat. No. B118301), and the data in the table were OD450 nm values.
IgG control was mIgG1, S003-NB151-89 was a clone that is selected from a library constructed by peripheral blood collected from Alpaca immunized by human CD19-His and can bind to a monkey CD19-His protein, and was used as a positive control, and the data in the table were OD450 nm values.

[7] = target: T4, monkey CD19, full length, on HEK293T …; assay: FACS titration on HEK293T-monkey CD19 cells
Description: as §1, §2

Row | binding result [1] | binding result [2] | proportion of positive cells to B cells (%) at 1 nM [3] | proportion of positive cells to B cells (%) at 10 nM [3] | proportion of positive cells to B cells (%) at 100 nM [3] | OD450 at 0.0001 nM [4] | OD450 at 0.001 nM [4] | OD450 at 0.01 nM [4] | OD450 at 0.10 nM [4] | OD450 at 1.00 nM [4] | OD450 at 10.00 nM [4] | OD450 at 100.00 nM [4] | EC50 [5] | OD450 at 0.0001 nM [6] | OD450 at 0.001 nM [6] | OD450 at 0.01 nM [6] | OD450 at 0.10 nM [6] | OD450 at 1.00 nM [6] | OD450 at 10.00 nM [6] | OD450 at 100.00 nM [6] | Binder | further results
1 | no binding (tested: 100 nM) | no binding (tested: 100 nM) | 3% | 6% | 39% | 0.08 OD450 | 0.07 OD450 | 0.06 OD450 | 0.07 OD450 | 0.08 OD450 | 0.09 OD450 | 0.13 OD450 | 20.3 nM | 0.05 OD450 | 0.05 OD450 | 0.05 OD450 | 0.05 OD450 | 0.05 OD450 | 0.06 OD450 | 0.1 OD450 | FMC63.26-mIgG1 (antibody, V domains shown, Humanized FMC63; also called FMC63-L2H6) VH: EVTLKESGPVLVKPTETLTLTCTVSGFSLPDYGVSWIRQPPGKALEWLAVIWGSETTYYNSALKSRLTISKDTSKSQVVLTMTNMDPVDTATYYCAKHYYYGGSYAMDYWGQGTTVTVSS VL: DIQMTQSPSSLSASVGDRVTITCRASQDISKYLNWYQQKPGGAVKLLIYHTSRLHSGVPSRFSGSGSGTDYTLTISSLQPEDFATYYCQQGNTLPYTFGGGTKVEIKR | maximum mean fluorescence intensity [5]: 38500 MFI
2 | no binding (tested: 100 nM) | no binding (tested: 100 nM) | – | – | – | 0.06 OD450 | 0.06 OD450 | 0.06 OD450 | 0.05 OD450 | 0.06 OD450 | 0.08 OD450 | 0.11 OD450 | – | 0.05 OD450 | 0.05 OD450 | 0.05 OD450 | 0.05 OD450 | 0.05 OD450 | 0.05 OD450 | 0.1 OD450 | FMC63.27-mIgG1 (antibody, V domains shown, Humanized FMC63; also called FMC63-L2H7) VH: EVTLKESGPVLVKPTETLTLTCTVSGVSLPDYGVSWIRQPPGKALEWLAVIWGSETTYYNSALKSRLTISKDNSKSQVVLTMTNMDPVDTATYYCAKHYYYGGSYAMDYWGQGTTVTVSS VL: DIQMTQSPSSLSASVGDRVTITCRASQDISKYLNWYQQKPGGAVKLLIYHTSRLHSGVPSRFSGSGSGTDYTLTISSLQPEDFATYYCQQGNTLPYTFGGGTKVEIKR | –
3 | no binding (tested: 100 nM) | no binding (tested: 100 nM) | 4% | 10% | 60% | 0.08 OD450 | 0.08 OD450 | 0.08 OD450 | 0.08 OD450 | 0.08 OD450 | 0.08 OD450 | 0.09 OD450 | 1.52 nM | 0.1 OD450 | 0.1 OD450 | 0.09 OD450 | 0.08 OD450 | 0.08 OD450 | 0.1 OD450 | 0.12 OD450 | FMC63.25-mIgG1 (antibody, V domains shown, Humanized FMC63; also called FMC63-L2H5) VH: EVTLKESGPVLVKPTETLTLTCTVSGFSLSDYGVSWIRQPPGKALEWLAVIWGSETTYYNSALKSRLTISKDTSKSQVVLTMTNMDPVDTATYYCAKHYYYGGSYAMDYWGQGTTVTVSS VL: DIQMTQSPSSLSASVGDRVTITCRASQDISKYLNWYQQKPGGAVKLLIYHTSRLHSGVPSRFSGSGSGTDYTLTISSLQPEDFATYYCQQGNTLPYTFGGGTKVEIKR | EC50 (read off the curve) [7]: ~0.2 nM; maximum mean fluorescence intensity [5]: 34700 MFI
